# Reference: patent publication US10577428B2, “Anti-factor XI monoclonal antibodies and methods of use thereof” (Oregon Health & Science University, priority 2007, dated 2020)
# B1: aXIMab: neutralizing murine IgG/kappa anti-human FXI monoclonal antibody from hybridoma 1A6; binds A3 domain; VH SEQ ID NO:3, VL SEQ ID NO:5 (antibody, listed as Mus musculus, V domains shown)
# VH: QVTLKESGPGILKPSQTLSLTCSFSGFSLSTSGMGVGWIRQPSGKGLEWLAHIWWDDDKYYNPSLKSQLTISKDTSRNQVFLKITSVDAADTATYYCARKRSSVVAHYYAMDYWGQGTSVTVSS
# VL: DIVLTQSPASLAVSLGQRATISCKASQSVDYDGDSYLNWYQQKPGQPPKLLIYAASNLESGIPARFSGSGSGTDFTLNIHPVEEEDAATYYCQQSNGDPWTFGGGTKLEIK
# Legend:
# [1] = target: Prekallikrein (PK) (Homo sapiens, UniProt P03952); test: Western blot binding to prekallikrein
# Chain of Prekallikrein (PK) (P03952 20-638): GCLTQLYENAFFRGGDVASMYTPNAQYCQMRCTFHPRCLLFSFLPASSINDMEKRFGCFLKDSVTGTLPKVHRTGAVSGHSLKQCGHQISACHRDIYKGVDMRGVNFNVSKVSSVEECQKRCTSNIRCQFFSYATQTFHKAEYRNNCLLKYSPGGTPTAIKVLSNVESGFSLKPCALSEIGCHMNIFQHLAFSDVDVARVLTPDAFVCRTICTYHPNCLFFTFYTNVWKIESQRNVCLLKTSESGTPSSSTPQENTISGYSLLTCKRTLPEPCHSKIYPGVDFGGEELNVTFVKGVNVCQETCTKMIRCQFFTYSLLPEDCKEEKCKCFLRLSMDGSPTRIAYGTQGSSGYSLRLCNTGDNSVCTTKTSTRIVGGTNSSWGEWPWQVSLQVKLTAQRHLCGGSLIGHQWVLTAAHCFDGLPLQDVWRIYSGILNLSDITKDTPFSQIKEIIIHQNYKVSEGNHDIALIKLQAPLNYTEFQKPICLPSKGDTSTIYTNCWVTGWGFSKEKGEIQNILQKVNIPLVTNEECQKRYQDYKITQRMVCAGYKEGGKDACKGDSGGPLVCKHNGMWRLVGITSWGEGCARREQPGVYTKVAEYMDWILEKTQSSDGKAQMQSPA
# Protocol: Comparative binding studies for monoclonal antibody 1A6 were conducted using FXI, Prekallikrein (PK), and FXI/PK chimeras involving either the substitution FXI domains with PK domains (FIG. 9) or the substitution of PK domains with FXI domains (FIG. 10).
# [2] = system: FXI; test: Pilot experiment: FXI:Ag, FXI inhibitor and FXI procoagulant activity after aXIMab in a single baboon; format: in vivo
# Protocol: The maximum achievable prolongation of the aPTT was about 2.5 fold. FXI:Ag was measured by ELISA using goat anti-human FXI polyclonal capture and detection (horseradish peroxidase conjugated [HRP]) antibodies (Affinity Biologicals, Hamilton, Ontario), which also recognized baboon FXI and its complex with aXIMab. A standard curve was constructed with serial dilutions of NBP, and FXI concentrations were determined in percentage of NBP. Western blots for FXI were performed by size fractionation of 1 μl samples of plasma under non-reducing conditions on 7.5% polyacrylamide-SDS gels, followed by transfer to PVDF membranes. Detection was with a goat-anti-human FXI polyclonal antibody conjugated to HRP and chemiluminescence.
# [3] = system: baboons (Papio anubis); test: Thrombosis model, collagen coated 4 mm i.d. vascular grafts in AV shunt: platelet and fibrin deposition; format: in vivo, baboon (Papio anubis)
# Protocol: A total of 39 non-terminal studies were performed on 17 normal juvenile male baboons (Papio anubis) weighing 9-11 kg. Experiments were conducted on non-anticoagulated awake animals that had chronic exteriorized arterio-venous (AV) shunts previously placed between the femoral artery and vein, as described elsewhere (Hanson et al. (1993) J. Clin. Invest. 92:2003-2012). Baseline shunt blood flow exceeded 250 ml/min in all study animals. Anxiety was managed with low dose ketamine (<2 mg/kg/hr). Platelet counts, red cell counts, and hematocrits were measured daily, before and after the experiments.
# Thrombus formation was initiated within the baboon AV shunt by interposing a thrombogenic segment of prosthetic vascular graft (ePTFE, WL Gore & Co., Flagstaff, Ariz.), as previously described (Hanson et al. (1993) J. Clin. Invest. 92:2003-2012). To consistently trigger platelet-dependent thrombus formation, the clinical graft segments were coated with immobilized collagen. Twenty mm long grafts having internal diameters (i.d.) of either 2 or 4 mm were filled with equine type I collagen (1 mg/ml; Nycomed Arzenmittel, Munich, Germany) for 15 min, and then dried overnight under sterile airflow. This method produced a uniform collagen coating within the graft lumen as determined by scanning electron microscopy (FIGS. 1B and 1C). The thrombogenic collagen-coated grafts were then incorporated between segments of silicon rubber tubing, and deployed into the AV shunts (FIG. 1A). The grafts were exposed to blood for up to 60 min. During each experiment, the blood flow rate through the graft was restricted to 100 ml/min by clamping the proximal silicone rubber shunt segment, thereby producing a mean wall shear rate (MWSR) in the 4 mm grafts of 265 s^−1, while in the 2 mm grafts the initial MWSR was 2120 s^−1. Flow rates were continuously monitored using an ultrasonic flow meter (Transonics Systems, Ithaca, N.Y.). […] Baseline blood flow was restored through the permanent shunt after each experiment. In the 2 mm diameter grafts blood flow rates progressively declined due to thrombus formation. The grafts were removed from the AV shunts when the flow rate fell from 100 ml/min to below 20 ml/min, signaling imminent occlusion. The time from initiation of blood flow to graft removal (<20 ml/min blood flow) was taken as the occlusion time.
# For imaging of the platelet deposition, autologous baboon platelets were labeled with 1 mCi of ^111In-oxine as previously described (Hanson et al. (1993) J. Clin. Invest. 92:2003-2012). Labeled platelets were infused and allowed to circulate for at least 1 h before studies were performed. Accumulation of labeled platelets onto thrombogenic grafts were measured in 5-min intervals using a gamma scintillation camera. Homologous ^125I-labeled baboon fibrinogen (4 μCi, >90% clottable) was infused 10 min before each study, and incorporation of the labeled fibrin within the thrombus was assessed using a gamma counter 30 days later to allow the ^111In to decay. The radioactivity deposited (cpm) was divided by the clottable fibrin(ogen) radioactivity of samples taken at the time of the original study (cpm/mg).
# [4] = system: baboons (Papio anubis); test: Local and systemic TAT, βTG and D-dimer during thrombus formation (4 mm grafts); format: in vivo, baboon (Papio anubis)
# Protocol: A novel local sampling method was used to assess the local production of thrombogenic mediators by sampling blood that superfused propagating experimental thrombi. […] All blood samples were collected into 1/10th volume 3.8% citrate anticoagulant. Systemic samples (1 ml each) were collected before initiation of thrombosis as well as 30 and 60 min into each study. A total of 6 local blood samples were drawn from the peripheral blood IBL at a rate of 100 μl/min over 10 min intervals out of a 0.64 mm port which was located 10 mm distal to the growing thrombus (FIG. 1A). […] Infusion and sampling were regulated by syringe pumps (Harvard Apparatus). Local sampling was performed only with the 4 mm i.d. devices in this study.
# Blood cell counts were determined using a micro-60 automated cell counter (Horiba-ABX Diagnostics). Blood samples were divided into two aliquots and processed according to specific test requirements. All samples were placed on ice for 10 min, centrifuged at 4° C. for 10 min at 12,900 g, and the plasmas were stored at −80° C. For β-thromboglobulin (βTG) determinations, the samples were supplemented with 4 μg/ml prostaglandin E1 (PGE1), 4.3 mg/ml acetylsalicylic acid (ASA), and 50 μg/ml PPACK. Cross-reacting ELISA assays were used to determine D-dimer levels (IMUCLONE® D-Dimer, American Diagnostica; LOD: 35 ng/mL), the platelet activation marker βTG (Asserachrom®, Diagnostica Stago; LOD: 5 IU/mL), and thrombin-antithrombin complexes (TAT, Enzygnost-TAT, Dade-Behring; LOD: 2 ng/mL). All ELISA test kits utilized for these studies have previously shown sensitivity to baboon markers.
# [5] = system: baboons; test: Observation for adverse reactions and bleeding events; format: in vivo, baboon
molecule,measurement,setting,value
B1,binding to PK,[1],did not bind
same,FXI:Ag levels,"[2]; 1 h after 2 mg/kg, single baboon, baseline 110%",40 % of NBP levels
same,FXI activity,"[2]; 1 h after 2 mg/kg, single baboon, baseline 125%",< 1%
same,Maximum circulating FXI inhibitor levels (Bethesda assay),"[2]; 1 h post infusion, 2 mg/kg, single baboon",72 Bethesda units [BU]
same,circulating FXI inhibitor levels (Bethesda assay),"[2]; by day 15, 2 mg/kg, single baboon",< 0.6 BU
same,FXI:Ag levels,"[2]; day 8 post-infusion, 2 mg/kg, single baboon",300 % of control
same,FXI activity,"[2]; day 27, 2 mg/kg, single baboon",136%
same,Plasma FXI antigen,"[2]; day 27, 2 mg/kg, single baboon",130%
same,total FXI:Ag levels,[2]; following the disappearance of FXI activity,temporarily increased several-fold above baseline
same,FXI activity inhibited,"[2]; for 10 days after administration, 2 mg/kg, single baboon",> 99%
same,free FXI:Ag,[2]; for over a week following injection,< 1%
same,maximum achievable prolongation of the aPTT,[2]; in vivo,about 2.5 fold
same,Plasma FXI antigen,"[2]; through day 15, 2 mg/kg, single baboon",above 200 % of control
same,End-point fibrin deposition reduced compared with controls,[3]; 4 mm graft,81%
same,End-point fibrin deposition,"[3]; 4 mm graft, control 1.18±0.19",0.23 ± 0.07 mg
same,platelet accumulation,"[3]; 10 min after graft exposure, 4 mm graft, control 0.23±0.03",0.13±0.03 ×10^9 platelets
same,Graft platelet accumulation lower than in vehicle controls,"[3]; 60 min, 4 mm graft",63%
same,Graft platelet accumulation,"[3]; 60 min, 4 mm graft, n=6, control 3.68±0.52",1.38±0.26 ×10^9 platelets
same,"Systemic platelet counts, change following thrombosis experiments",[3]; in vivo,did not change significantly
same,Systemic platelet counts,"[3]; prior to thrombosis studies, control 337±31",341±27 ×10^3/μl
same,βTG release (platelet activation at thrombus surface) reduced,"[4]; at 30 min, samples taken distal to thrombi",86%
same,TAT levels by local sampling reduced,[4]; at 40 min,up to 98%
same,Systemic βTG levels reduced,[4]; at 60 min,42%
same,systemic TAT levels reduced versus untreated controls,[4]; at 60 min,81%
same,systemic TAT levels,"[4]; at 60 min, n=6, control 22.1±2.5",4.3 ± 0.5 µg/L
same,Systemic βTG levels,"[4]; at 60 min, n=6, vehicle 39.5±5.5",23.0±2.1 IU/ml
same,increase in local TAT levels,[4]; pre-treatment with aXIMab (FIG. 4A),prevented the increase in local TAT levels
same,adverse reactions to the antibody,"[5]; 2 mg/kg i.v. bolus, 4 baboons",No adverse reactions
same,adverse bleeding events,[5]; one week follow-up periods of observation,"No re-bleeding phenomena, petechiae, hematomas or other adverse bleeding events"
